{
  "source": "patent US20140228277A1",
  "about": "(Genentech, published 2014)",
  "key": {"[1]": {"target": "T1, human BACE1 extracellular domain (residues 22-457), wild type, C-terminal His8 (human, UniProt P56817 22-457)", "T1 construct": "Expressed in CHO cells with the BACE1 signal peptide; also called WT; BACE1 ECD", "T1 sequence (P56817 other isoform, or with tags, fused parts or gaps)": "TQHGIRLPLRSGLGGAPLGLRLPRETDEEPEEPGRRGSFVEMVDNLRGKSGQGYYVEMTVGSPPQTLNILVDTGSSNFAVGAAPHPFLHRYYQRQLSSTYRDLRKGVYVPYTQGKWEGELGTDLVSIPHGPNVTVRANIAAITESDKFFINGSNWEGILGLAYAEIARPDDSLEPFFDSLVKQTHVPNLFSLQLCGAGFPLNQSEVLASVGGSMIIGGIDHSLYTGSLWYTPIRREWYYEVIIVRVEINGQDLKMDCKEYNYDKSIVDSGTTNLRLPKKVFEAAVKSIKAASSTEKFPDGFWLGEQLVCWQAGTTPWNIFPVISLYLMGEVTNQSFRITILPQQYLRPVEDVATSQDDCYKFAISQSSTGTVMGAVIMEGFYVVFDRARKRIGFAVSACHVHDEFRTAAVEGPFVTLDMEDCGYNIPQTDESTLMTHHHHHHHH", "experiment": "ELISA; biotinylated BACE020 on plate-coated BACE1 ECD (WT, the reference)", "experimental": "(§1) Maxisorp microtiter plates (Nalge Nunc International, Rochester, N.Y.) were coated overnight at 4° C. with 2 μg/ml BACE1 mutant in 50 mM carbonate, pH 9.6. The coated wells were washed with buffer (PBS, 0.05% Polysorbate 20) and blocked with assay buffer (PBS, pH 7.4, 0.5% BSA, 0.05% Tween 20, 15 ppm Proclin) for 1 h at room temperature with gentle shaking. […] After washing, the amount of peptide bound to the plate was detected by the addition of Streptavidin-Horseradish Peroxidase Conjugate (GE Healthcare, Piscataway, N.J.) followed by the addition of TMB/H₂O₂ substrate (KPL, Gaithersburg, Md.). The reaction was quenched with 1 M phosphoric acid and the A₄₅₀ measured on a Molecular Devices SpectraMax Plus384 microplate reader. Concentrations to give half maximal effective concentration (EC₅₀) were determined using a 4-parameter non-linear regression curve-fitting program with Kaleidagraph (Synergy Software, Reading, Pa.). […] Concentrations to give half maximal inhibition concentration (IC₅₀) were determined using a 4-parameter non-linear regression curve-fitting program with Kaleidagraph.\n(§2) The fold decrease in binding affinity was determined as the relative EC₅₀ values of EC₅₀ (mut)/EC₅₀ (WT), which are listed in Table 3."}, "[2]": {"target": "T2, human BACE1 ECD (22-457) T133A, His8 (human, UniProt P56817 22-457)", "T2 construct": "also called T133A (72)", "T2 sequence (P56817 other isoform, or with tags, fused parts or gaps T133A T133A)": "as the sequence (P56817 other isoform, or with tags, fused parts or gaps) above, with T112A counted along it", "experiment": "ELISA; biotinylated BACE020 on plate-coated BACE1 ECD mutant; ratio to WT", "experimental": "as §1, §2"}, "[3]": {"target": "T3, human BACE1 ECD (22-457) Q134A, His8 (human, UniProt P56817 22-457)", "T3 construct": "also called Q134A (73)", "T3 sequence (P56817 other isoform, or with tags, fused parts or gaps Q134A Q134A)": "as the sequence (P56817 other isoform, or with tags, fused parts or gaps) above, with Q113A counted along it", "experiment": "ELISA; biotinylated BACE020 on plate-coated BACE1 ECD mutant; ratio to WT", "experimental": "as §1, §2"}, "[4]": {"target": "T4, human BACE1 ECD (22-457) K168A, His8 (human, UniProt P56817 22-457)", "T4 construct": "also called K168A (107)", "T4 sequence (P56817 other isoform, or with tags, fused parts or gaps K168A K168A)": "as the sequence (P56817 other isoform, or with tags, fused parts or gaps) above, with K147A counted along it", "experiment": "ELISA; biotinylated BACE020 on plate-coated BACE1 ECD mutant; ratio to WT", "experimental": "as §1, §2"}, "[5]": {"target": "T5, human BACE1 ECD (22-457) W176A, His8 (human, UniProt P56817 22-457)", "T5 construct": "also called W176A (115)", "T5 sequence (P56817 other isoform, or with tags, fused parts or gaps W176A W176A)": "as the sequence (P56817 other isoform, or with tags, fused parts or gaps) above, with W155A counted along it", "experiment": "ELISA; biotinylated BACE020 on plate-coated BACE1 ECD mutant; ratio to WT", "experimental": "as §1, §2"}, "[6]": {"target": "T6, human BACE1 ECD (22-457) I179A, His8 (human, UniProt P56817 22-457)", "T6 construct": "also called I179A (118)", "T6 sequence (P56817 other isoform, or with tags, fused parts or gaps I179A I179A)": "as the sequence (P56817 other isoform, or with tags, fused parts or gaps) above, with I158A counted along it", "experiment": "ELISA; biotinylated BACE020 on plate-coated BACE1 ECD mutant; ratio to WT", "experimental": "as §1, §2"}, "[7]": {"target": "human BACE1 ECD (22-457) R189A, His8 (human, UniProt P56817 22-457)", "sequence (P56817 other isoform, or with tags, fused parts or gaps R189A R189A)": "as the sequence (P56817 other isoform, or with tags, fused parts or gaps) above, with R168A counted along it", "experiment": "ELISA; biotinylated BACE020 on plate-coated BACE1 ECD mutant; ratio to WT", "experimental": "as §1, §2"}, "[8]": {"target": "T7, human BACE1 ECD (22-457) K285A, His8 (human, UniProt P56817 22-457)", "T7 construct": "also called K285A (224)", "T7 sequence (P56817 other isoform, or with tags, fused parts or gaps K285A K285A)": "as the sequence (P56817 other isoform, or with tags, fused parts or gaps) above, with K264A counted along it", "experiment": "ELISA; biotinylated BACE020 on plate-coated BACE1 ECD mutant; ratio to WT", "experimental": "as §1, §2"}, "[9]": {"target": "T8, human BACE1 ECD (22-457) D289A, His8 (human, UniProt P56817 22-457)", "T8 construct": "also called D289A (228)", "T8 sequence (P56817 other isoform, or with tags, fused parts or gaps D289A D289A)": "as the sequence (P56817 other isoform, or with tags, fused parts or gaps) above, with D268A counted along it", "experiment": "ELISA; biotinylated BACE020 on plate-coated BACE1 ECD mutant; ratio to WT", "experimental": "as §1, §2"}, "[10]": {"target": "T9, human BACE1 ECD (22-457) G291A, His8 (human, UniProt P56817 22-457)", "T9 construct": "also called G291A (230)", "T9 sequence (P56817 other isoform, or with tags, fused parts or gaps G291A G291A)": "as the sequence (P56817 other isoform, or with tags, fused parts or gaps) above, with G270A counted along it", "experiment": "ELISA; biotinylated BACE020 on plate-coated BACE1 ECD mutant; ratio to WT", "experimental": "as §1, §2"}, "[11]": {"target": "T10, human BACE1 ECD (22-457) T292A, His8 (human, UniProt P56817 22-457)", "T10 construct": "also called T292A (231)", "T10 sequence (P56817 other isoform, or with tags, fused parts or gaps T292A T292A)": "as the sequence (P56817 other isoform, or with tags, fused parts or gaps) above, with T271A counted along it", "experiment": "ELISA; biotinylated BACE020 on plate-coated BACE1 ECD mutant; ratio to WT", "experimental": "as §1, §2"}, "[12]": {"target": "T11, human BACE1 ECD (22-457) T293A, His8 (human, UniProt P56817 22-457)", "T11 construct": "also called T293A (232)", "T11 sequence (P56817 other isoform, or with tags, fused parts or gaps T293A T293A)": "as the sequence (P56817 other isoform, or with tags, fused parts or gaps) above, with T272A counted along it", "experiment": "ELISA; biotinylated BACE020 on plate-coated BACE1 ECD mutant; ratio to WT", "experimental": "as §1, §2"}, "[13]": {"target": "T12, human BACE1 ECD (22-457) R296A, His8 (human, UniProt P56817 22-457)", "T12 construct": "also called R296A (235)", "T12 sequence (P56817 other isoform, or with tags, fused parts or gaps R296A R296A)": "as the sequence (P56817 other isoform, or with tags, fused parts or gaps) above, with R275A counted along it", "experiment": "ELISA; biotinylated BACE020 on plate-coated BACE1 ECD mutant; ratio to WT", "experimental": "as §1, §2"}, "[14]": {"target": "T13, human BACE1 ECD (22-457) T390A, His8 (human, UniProt P56817 22-457)", "T13 construct": "also called T390A (329)", "T13 sequence (P56817 other isoform, or with tags, fused parts or gaps T390A T390A)": "as the sequence (P56817 other isoform, or with tags, fused parts or gaps) above, with T369A counted along it", "experiment": "ELISA; biotinylated BACE020 on plate-coated BACE1 ECD mutant; ratio to WT", "experimental": "as §1, §2"}, "[15]": {"target": "T14, human BACE1 ECD (22-457) G72A, His8 (human, UniProt P56817 22-457)", "T14 construct": "also called G72A (11)", "T14 sequence (P56817 other isoform, or with tags, fused parts or gaps G72A G72A)": "as the sequence (P56817 other isoform, or with tags, fused parts or gaps) above, with G51A counted along it", "experiment": "ELISA; biotinylated BACE020 on plate-coated BACE1 ECD mutant; ratio to WT", "experimental": "as §1, §2"}, "[16]": {"target": "T15, human BACE1 ECD (22-457) L91A, His8 (human, UniProt P56817 22-457)", "T15 construct": "also called L91A (30)", "T15 sequence (P56817 other isoform, or with tags, fused parts or gaps L91A L91A)": "as the sequence (P56817 other isoform, or with tags, fused parts or gaps) above, with L70A counted along it", "experiment": "ELISA; biotinylated BACE020 on plate-coated BACE1 ECD mutant; ratio to WT", "experimental": "as §1, §2"}, "[17]": {"target": "T16, human BACE1 ECD (22-457) D93A, His8 (human, UniProt P56817 22-457)", "T16 construct": "also called D93A (32)", "T16 sequence (P56817 other isoform, or with tags, fused parts or gaps D93A D93A)": "as the sequence (P56817 other isoform, or with tags, fused parts or gaps) above, with D72A counted along it", "experiment": "ELISA; biotinylated BACE020 on plate-coated BACE1 ECD mutant; ratio to WT", "experimental": "as §1, §2"}, "[18]": {"target": "T17, human BACE1 ECD (22-457) S96A, His8 (human, UniProt P56817 22-457)", "T17 construct": "also called S96A (35)", "T17 sequence (P56817 other isoform, or with tags, fused parts or gaps S96A S96A)": "as the sequence (P56817 other isoform, or with tags, fused parts or gaps) above, with S75A counted along it", "experiment": "ELISA; biotinylated BACE020 on plate-coated BACE1 ECD mutant; ratio to WT", "experimental": "as §1, §2"}},
  "note": "Starred links: 1 amine or outer side, 2 acyl side, 3 side chain; linkers in the order of their positions; H or OH if unused. Positions of bridges follow the written chain, without caps; N, C: chain ends. NH(CH2)3(OCH2CH2)2O(CH2)3NH = C(CN[*:1])COCCOCCOCCCN[*:2]",
  "data": [
    {"binder": "Ac-NEESMYCRLLGIGCG-{NH(CH2)3(OCH2CH2)2O(CH2)3NH-biotin} (disulfide 7-14, also called C-terminal biotin tagged BACE020 peptide)", "note": "[biotinylated BACE020 (Ac-NEESMYCRLLGIGCG-(PEG)3-biotin)]", "values": [
      {"measurement": "Fold Decrease in Binding EC50 (Mut)/EC50 (WT)", "setting": "[1]", "value": 1, "unit": "fold"},
      {"measurement": "Fold Decrease in Binding EC50 (Mut)/EC50 (WT)", "setting": "[2]", "value": 1.1, "unit": "fold"},
      {"measurement": "Fold Decrease in Binding EC50 (Mut)/EC50 (WT)", "setting": "[3]", "value": 1990, "unit": "fold"},
      {"measurement": "Fold Decrease in Binding EC50 (Mut)/EC50 (WT)", "setting": "[4]", "value": 1, "unit": "fold"},
      {"measurement": "Fold Decrease in Binding EC50 (Mut)/EC50 (WT)", "setting": "[5]", "value": 690, "unit": "fold"},
      {"measurement": "Fold Decrease in Binding EC50 (Mut)/EC50 (WT)", "setting": "[6]", "value": 2.6, "unit": "fold"},
      {"measurement": "Fold Decrease in Binding EC50 (Mut)/EC50 (WT)", "setting": "[7]", "value": 2.7, "unit": "fold"},
      {"measurement": "Fold Decrease in Binding EC50 (Mut)/EC50 (WT)", "setting": "[8]", "value": 4, "unit": "fold"},
      {"measurement": "Fold Decrease in Binding EC50 (Mut)/EC50 (WT)", "setting": "[9]", "value": 2210, "unit": "fold"},
      {"measurement": "Fold Decrease in Binding EC50 (Mut)/EC50 (WT)", "setting": "[10]", "value": 0.8, "unit": "fold"},
      {"measurement": "Fold Decrease in Binding EC50 (Mut)/EC50 (WT)", "setting": "[11]", "value": 73.6, "unit": "fold"},
      {"measurement": "Fold Decrease in Binding EC50 (Mut)/EC50 (WT)", "setting": "[12]", "value": 349, "unit": "fold"},
      {"measurement": "Fold Decrease in Binding EC50 (Mut)/EC50 (WT)", "setting": "[13]", "value": 70.9, "unit": "fold"},
      {"measurement": "Fold Decrease in Binding EC50 (Mut)/EC50 (WT)", "setting": "[14]", "value": 0.9, "unit": "fold"},
      {"measurement": "Fold Decrease in Binding EC50 (Mut)/EC50 (WT)", "setting": "[15]", "value": 6.5, "unit": "fold"},
      {"measurement": "Fold Decrease in Binding EC50 (Mut)/EC50 (WT)", "setting": "[16]", "value": 1, "unit": "fold"},
      {"measurement": "Fold Decrease in Binding EC50 (Mut)/EC50 (WT)", "setting": "[17]", "value": 568, "unit": "fold"},
      {"measurement": "Fold Decrease in Binding EC50 (Mut)/EC50 (WT)", "setting": "[18]", "value": 1, "unit": "fold"}
    ]}
  ]
}
